{
  "source": "patent US20240181135A1",
  "about": "“BIOCHEMICAL ACTIVATION OF DYSFUNCTIONAL SKELETAL STEM CELLS FOR SKELETAL REGENERATION” (The Board of Trustees of the Leland Stanford Junior …, priority 2021, published 2024)",
  "tested_on": "femoral fractures of ‘2-mo’ mice",
  "experiment": "Hydrogels containing recombinant Csf1 applied to femoral fractures of young mice (μCT and flow cytometry)",
  "assay_type": "in vivo, mouse",
  "conditions": "5 μg recombinant Csf1 in hydrogel, versus PBS",
  "description": "We also tested whether these increases in Csf1 affected bone maintenance and regeneration. […] Unexpectedly, however, femora harvested from transgenic mice at post-fracture day-21 had decreased mechanical strength compared to wild-type controls despite having increased BMD and similar callus volume (FIG. 3p-q & FIG. 11g). […] In total, SSC lineage derived Csf1 might drive increased bone resorption by stimulating higher osteoclast activity, and this activity needs to be maintained and finely balanced for proper bone health.\nBi-cortical femoral fracture: Animals were anaesthetized using aerosolized isoflurane and analgesia was administered before incision. The femur was exposed following muscle distraction and lateral dislocation of the patella. […]\nMicro-computed tomography: Femora were harvested and cleaned of soft tissue. […] Reconstructed samples were analyzed using CT Analyser and CTvox software (Bruker). Trabecular bone parameters of uninjured femur bones were assessed by analyzing a region of 200 sections which was defined 50 sections distal of the end of the growth plate. Fracture calluses were analyzed by selecting 150 sections in both directions of the fracture gap yielding a total area of 300 sections. […]",
  "data": [
    {"molecule": "recombinant Csf1: recombinant Csf1 (5 μg) in hydrogel with defined release kinetics, applied to fractures (protein, UniProt P07141 33-552, looked up, in hydrogel, recombinant Csf1 (5 μg) in hydrogel with defined release kinetics, applied to fractures) Macrophage colony-stimulating …: KEVSEHCSHMIGNGHLKVLQQLIDSQMETSCQIAFEFVDQEQLDDPVCYLKKAFFLVQDIIDETMRFKDNTPNANATERLQELSNNLNSCFTKDYEEQNKACVRTFHETPLQLLEKIKNFFNETKNLLEKDWNIFTKNCNNSFAKCSSRDVVTKPDCNCLYPKATPSSDPASASPHQPPAPSMAPLAGLAWDDSQRTEGSSLLPSELPLRIEDPGSAKQRPPRSTCQTLESTEQPNHGDRLTEDSQPHPSAGGPVPGVEDILESSLGTNWVLEEASGEASEGFLTQEAKFSPSTPVGGSIQAETDRPRALSASPFPKSTEDQKPVDITDRPLTEVNPMRPIGQTQNNTPEKTDGTSTLREDHQEPGSPHIATPNPQRVSNSATPVAQLLLPKSHSWGIVLPLGELEGKRSTRDRRSPAELEGGSASEGAARPVARFNSIPLTDTGHVEQHEGSSDPQIPESVFHLLVPGIILVLLTVGGLLFYKWKWRSHRDPQTLDSSVGRPEDSSLTQDEDRQVELPV", "values": [
      {"measurement": "Fracture healing (μCT of day-10 calluses)", "value": "impaired healing"},
      {"measurement": "SSC frequency at day-10 (flow cytometry)", "value": "without alteration of SSC frequency"}
    ]}
  ]
}
